Patent US20230383005A1 (University of California, published 2023)

T1: recombinant CD46-Fc fusion (human CD46 domains 1 and 2) (human, UniProt P15529 35-159)
T1 construct: domain: domains 1 and 2; also called recombinant human CD46 protein fragment; recombinant CD46-Fc (domains 1 and 2); not shown: Fc from the pFUSE-Fc vector (Invivogen)
T1 sequence (looked up): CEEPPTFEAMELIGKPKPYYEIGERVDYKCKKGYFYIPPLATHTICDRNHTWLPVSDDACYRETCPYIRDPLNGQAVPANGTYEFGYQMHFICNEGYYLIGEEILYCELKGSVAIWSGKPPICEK


Columns and labels:
[1] = biological target: human CD46 on the surface of living multiple myeloma cells (human), P15529; test: cell-based or functional assay
[2] = biological target: T1, recombinant CD46-Fc fusion (human CD46 …); test: BLItz biolayer interferometry, biosensor coated with YS5 IgG1, CD46-Fc at 100 to 400 nM; one value for all four runs
[3] = biological target: human CD46 on the surface of living multiple myeloma cells (human) (UniProt P15529); test: FACS on living RPMI8226 cells, MFI fitted with a one-site specific binding model
[4] = biological target: T1, recombinant CD46-Fc fusion (human CD46 …); test: BLItz label-free biosensor (ForteBio), sensor coated with YS5 IgG1, CD46-Fc (domains 1 and 2) in solution
[5] = biological target: human CD46 on the surface of living multiple myeloma cells (human) (UniProt P15529); test: FACS on living MM1.S cells, MFI fitted with a one-site specific binding model

Binder | EC50, killing of primary MM patient cells at 48 hours (Annexin V/PI FACS) [1] [nM] | EC50, viability of MM1.S alone (luciferase, 96 hours) [1] [nM] | EC50, viability of MM1.S in the presence of BM61 stromal cells [1] [nM] | EC50, viability of MM1.S in the presence of HS5 stromal cells [1] [nM] | EC50, viability of MM1.S in the presence of HS27A stromal cells [1] [nM] | kon [2] [M⁻¹ s⁻¹] | Kd [3] [nM] | Kd [4] [nM] | Kd [5] [nM]
CD46-ADC (anti-CD46 IgG1 YS5 conjugated to MMAF via the mcvcpab linker) (antibody, V domains shown, here or on the partner: mcvcpab-MMAF on cysteines freed by TCEP reduction; average drug per antibody 3.3; sites not stated) VH: QVQLVQSGGGVVQPGRSLRLACAASGLTVNNYAMHWVRQAPGKGLEWVAVISYDGNNKYYADSVKGRFTISRDNSKNTLYLQMNSLRAEDTAVYYCAKGGGYFDLWGRGTLVTVSS VL: QSVLTQPPSVSGAPGQRVTISCTGSSSNIGAGYDVHWYQQLPGTAPKLLIYGNNNRPSGVPDRFSGSKSGTSASLAITGLQAEDEADYYCSSYTSGTWLFGGGTKLTVL | < 10 | 2.25 | 1.05 | 0.77 | 0.92 |  |  |  | 
YS5 IgG1 (full-length human anti-CD46 IgG1) (antibody, V domains shown, also called anti-CD46 antibody; CD46 antibody) VH: QVQLVQSGGGVVQPGRSLRLACAASGLTVNNYAMHWVRQAPGKGLEWVAVISYDGNNKYYADSVKGRFTISRDNSKNTLYLQMNSLRAEDTAVYYCAKGGGYFDLWGRGTLVTVSS VL: QSVLTQPPSVSGAPGQRVTISCTGSSSNIGAGYDVHWYQQLPGTAPKLLIYGNNNRPSGVPDRFSGSKSGTSASLAITGLQAEDEADYYCSSYTSGTWLFGGGTKLTVL |  |  |  |  |  | 88000 | 1.19 | 2.99 | 2.24
